In PMC4499147, “Modulation of LSD1 phosphorylation by CK2/WIP1 regulates RNF168-dependent 53BP1 recruitment in response to DNA damage” (Nucleic Acids Research, 2015):

Key:
[1] = molecular target: bacterially produced HIS-LSD1 (human, UniProt O60341 1-852); experiment: pull-down; GST fusion (1 μg) with HIS-tagged fusion (1 μg) in 500 μl NETN buffer (20 mM Tris-HCl pH 8.0, 0.15 M NaCl, 1 mM EDTA, 0.5% NP-40) at 4°C overnight; Glutathione-Sepharose beads; details: both partners purified
[2] = molecular target: T1, bacterially produced HIS-RNF168 (human, UniProt Q8IYW5 1-571); experiment: as above; details: both partners purified
T1 construct: E3 ligase RNF168, human; the bacterial construct is not described; source: bacterially produced

binding result [1]: binds
binding result [2]: binds
B1: bacterially produced GST-53BP1-KBD (domain or fragment, human, UniProt Q12888 1234-1616, looked up)
chain: HVLHRHMRTIREVRTLVTRVITDVYYVDGTEVERKVTEETEEPIVECQECETEVSPSQTGGSSGDLGDISSFSSKASSLHRTSSGTSLSAMHSSGSSGKGAGPLRGKTSGTEPADFALPSSRGGPGKLSPRKGVSQTGTPVCEEDGDAGLGIRQGGKAPVTPRGRGRRGRPPSRTTGTRETAVPGPLGIEDISPNLSPDDKSFSRVVPRVPDSTRRTDVGAGALRRSDSPEIPFQAAAGPSDGLDASSPGNSFVGLRVVAKWSSNGYFYSGKITRDVGAGKYKLLFDDGYECDVLGKDILLCDPIPLDTEVTALSEDEYFSAGVVKGHRKESGELYYSIEKEGQRKWYKRMAVILSLEQGNRLREQYGLGPYEAVTPLTKAAD
notes: The limits 1234-1616 are printed for the 53BP1-KBD cDNA clone put into pcDNA3.0; the bacterial construct itself is not described; source: bacterially produced
